Source: patent US20220033505A1 (Janssen / Centocor, published 2022)
Substitutions are numbered along the chain they refer to. Values belong to the binder of their own block, whether it stands above or below them.

Assays:
[1] = molecular target: T1, MHGW8 (B2m-3(G4S)-HLA-G1-G4S-Avi), soluble HLA-G1 extracellular domain (human, biotinylated (Avi tag) in the ligand blocking assay); assay: competition, flow cytometry: antibody titrated against MHGW8-dextramer binding to ILT2 on HEK293T cells (competitor ILT2)
T1 construct: also called HLA-G (MHGW8); recombinant biotinylated HLA-G1 (MHGW8)

[2] = molecular target: T1, MHGW8 (B2m-3(G4S)-HLA-G1-G4S-Avi), …; assay: competition, flow cytometry: antibody titrated against MHGW8-dextramer binding to ILT4 on HEK293T cells (competitor ILT4)
[3] = molecular target: T2, HLA-G1 on K562 cells (K562-HLA-G) (human); assay: flow cytometry; IgG1 mAb on cells expressing HLA-G
T2 construct: also called cells expressing HLA-G

[4] = molecular target: HLA-G on NCI-H2009-b2m target cells (human, UniProt P17693 25-338); assay: cell-based or functional assay
[5] = molecular target: T2, HLA-G1 on K562 cells (K562-HLA-G); assay: K562-HLA-G cell binding (method not described)
[6] = molecular target: T3, CD3 on human T cells (Jurkat cells, primary human T cells) (human, UniProt P07766 23-207); assay: T cell binding (method not described)
T3 construct: whole, on cells; also called CD3 epsilon; T cell receptor complex
T3 sequence (P07766 23-207): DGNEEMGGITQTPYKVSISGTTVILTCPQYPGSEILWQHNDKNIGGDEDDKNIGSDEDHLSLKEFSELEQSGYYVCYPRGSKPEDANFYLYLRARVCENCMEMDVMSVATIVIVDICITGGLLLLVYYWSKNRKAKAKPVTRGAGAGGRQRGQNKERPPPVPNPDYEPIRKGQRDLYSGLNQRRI

B1: MHGB694 (antibody, human IgG1, kappa, V domains shown)
VH: EVQLLESGGGLVQPGGSLRLSCAASGFTFSSYAMHWVRQAPGKGLDWVSGISGSGFSTYYVDSVKGRFTISRDNSKHTLYLQMNSLRAEDTAVYYCAKDNLVAGTVFDYWGQGTLVTVSS
VL: not shown
notes: IgG1 mAb
EC50 [1]: 0.64 nM | EC50 [2]: 0.2 nM | Geomean fluorescence signal (maximum value for binding) [3]: 473000

B2: HC3B216 (CD3B376-Fab-Fc x MHGB737-scFv-Fc) (bispecific antibody, human IgG1, lambda, L234A L235A)
heavy: QVQLQQSGPRLVRPSQTLSLTCAISGDSVFNNNAAWSWIRQSPSRGLEWLGRTYYRSKWLYDYAVSVKSRITVNPDTSRNQFTLQLNSVTPEDTALYYCARGYSSSFDYWGQGTLVTVSSASTKGPSVFPLAPSSKSTSGGTAALGCLVKDYFPEPVTVSWNSGALTSGVHTFPAVLQSSGLYSLSSVVTVPSSSLGTQTYICNVNHKPSNTKVDKKVEPKSCDKTHTCPPCPAPEAAGGPSVFLFPPKPKDTLMISRTPEVTCVVVSVSHEDPEVKFNWYVDGVEVHNAKTKPREEQYNSTYRVVSVLTVLHQDWLNGKEYKCKVSNKALPAPIEKTISKAKGQPREPQVYVYPPSREEMTKNQVSLTCLVKGFYPSDIAVEWESNGQPENNYKTTPPVLDSDGSFALVSKLTVDKSRWQQGNVFSCSVMHEALHNHYTQKSLSLSPGK
light: QSALTQPASVSGSPGQSITISCTGTSSNIGTYKFVSWYQQHPDKAPKVLLYEVSKRPSGVSSRFSGSKSGNTASLTISGLQAEDQADYHCVSYAGSGTLLFGGGTKLTVLGQPKAAPSVTLFPPSSEELQANKATLVCLISDFYPGAVTVAWKADSSPVKAGVETTTPSKQSNNKYAASSYLSLTPEQWKSHRSYSCQVTHEGSTVEKTVAPTECS
scFv: not shown
Cytotoxicity, EC50 (M); T cell-mediated cytotoxicity against NCI-H2009-b2m cells, 72 hr, E:T 3:1 [4]: 1.9e-09 M

B4: HC3B214 (CD3W246-Fab-Fc x MHGB737-scFv-Fc) (bispecific antibody, human IgG1, kappa, L234A L235A)
heavy: EVQLVESGGGLVKPGGSLRLSCAASGFTFSRYNMNWVRQAPGKGLEWVSSISTSSNYIYYADSVKGRFTFSRDNAKNSLDLQMSGLRAEDTAIYYCTRGWGPFDYWGQGTLVTVSSASTKGPSVFPLAPSSKSTSGGTAALGCLVKDYFPEPVTVSWNSGALTSGVHTFPAVLQSSGLYSLSSVVTVPSSSLGTQTYICNVNHKPSNTKVDKKVEPKSCDKTHTCPPCPAPEAAGGPSVFLFPPKPKDTLMISRTPEVTCVVVSVSHEDPEVKFNWYVDGVEVHNAKTKPREEQYNSTYRVVSVLTVLHQDWLNGKEYKCKVSNKALPAPIEKTISKAKGQPREPQVYVYPPSREEMTKNQVSLTCLVKGFYPSDIAVEWESNGQPENNYKTTPPVLDSDGSFALVSKLTVDKSRWQQGNVFSCSVMHEALHNHYTQKSLSLSPGK
light: DIQMTQSPSSLSASVGDRVTITCRARQSIGTAIHWYQQKPGKAPKLLIKYASESISGVPSRFSGSGSGTDFTLTISSVQPEDFATYYCQQSGSWPYTFGQGTKLEIKRTVAAPSVFIFPPSDEQLKSGTASVVCLLNNFYPREAKVQWKVDNALQSGNSQESVTEQDSKDSTYSLSSTLTLSKADYEKHKVYACEVTHQGLSSPVTKSFNRGEC
scFv: not shown
Cytotoxicity, EC50 (M); T cell-mediated cytotoxicity against NCI-H2009-b2m cells, 72 hr, E:T 3:1 [4]: 1.38e-10 M

B6: MHGB672 (antibody, human IgG1, kappa, V domains shown)
VH: QVQLQQSGPGLVKPSQTLSLTCAISGDSVSSNRAAWNWIRQTPSRGLEWLGRTYYRSEWYNDYAVSVKSRITINPDTSKNQFSLQLNSVTPEDTAVYYCARVRAAVPFDYWGQGTLVTVSS
VL: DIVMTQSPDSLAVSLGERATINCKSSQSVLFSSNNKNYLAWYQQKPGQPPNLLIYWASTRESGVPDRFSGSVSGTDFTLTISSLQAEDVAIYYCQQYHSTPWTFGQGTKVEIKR
notes: IgG1 mAb
EC50 [1]: 2.12 nM | EC50 [2]: 1.61 nM | Geomean fluorescence signal (maximum value for binding) [3]: 522000

B7: MHGB738 (GL optimized B688) (antibody, human IgG1, kappa, V domains shown)
VH: B6 VH with T42S, E58K, F82I, A104P, A105G, V106I, L116P
VL: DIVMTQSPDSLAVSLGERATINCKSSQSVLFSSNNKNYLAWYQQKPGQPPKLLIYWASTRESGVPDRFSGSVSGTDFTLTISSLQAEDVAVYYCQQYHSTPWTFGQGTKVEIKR
notes: IgG1 mAb
EC50 [1]: 0.73 nM | EC50 [2]: 0.8 nM

B10: MHGB688 (antibody, human IgG1, kappa, V domains shown)
VH: EVQLLESGPGLVKPSQTLSLTCVISGDSVSSNRAAWNWIRQSPSRGLEWLGRTYYRSKWYNDYAVSVKSRITINSDTSKNQISLQLNSVTPEDTAVYYCARVRPGIPFDYWGQGTPVTVSS
VL: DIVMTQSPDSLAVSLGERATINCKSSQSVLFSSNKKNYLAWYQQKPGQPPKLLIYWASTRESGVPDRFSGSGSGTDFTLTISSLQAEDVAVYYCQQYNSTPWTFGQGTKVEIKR
notes: IgG1 mAb
EC50 [1]: 1.72 nM | EC50 [2]: 1.42 nM | Geomean fluorescence signal (maximum value for binding) [3]: 482000

B11: MHGB668 (antibody, human IgG1, kappa, V domains shown)
VH: QVQLQQSGPGLVKPSQTLSLTCAISGDSVSNNSAAWNWIRQSPSRGLEWLGRTYYRSKWYNDYAVSVKSRITINPDTSKNQFSLQLNSVTPEDTAVYYCARYGSGTLLFDYWGQGTLVTVSS
VL: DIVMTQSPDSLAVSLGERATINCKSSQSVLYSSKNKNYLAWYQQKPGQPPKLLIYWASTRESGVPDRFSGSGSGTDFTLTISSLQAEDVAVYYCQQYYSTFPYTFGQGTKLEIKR
notes: IgG1 mAb
Geomean fluorescence signal (maximum value for binding) [3]: 591000

Next, values leading:

EC50 [5]: 11 nM | EC50 [6]: 60 nM
B3: HC3B258 (CD3B376-Fab-Fc x MHGB732-LH-scFv-Fc) (bispecific antibody, human IgG1, lambda, L234A L235A)
heavy: B2 heavy
light: B2 light
scFv: DIVMTQSPDSLAVSLGERATINCKSSQSVLHSSNNKNYLTWFQQKPGQPPKLLIYWASTRESGVPDRFSGSGSGTDFTLTISSLQAEDVAVYYCHQYYSTPPTFGQGTKVEIKGGSEGKSSGSGSESKSTGGSQVQLQQSGPGLVKPSQTLSLTCAISGDSVSSNSAAWNWIRQSPSRGLEWLGRTYYRSKWYNDYAVSVKSRITINPDTSKNQISLQLNSVTPEDTAVYYCAGDRRYGIVGLPFAYWGQGTLVTVSSEPKSSDKTHTCPPCPAPEAAGGPSVFLFPPKPKDTLMISRTPEVTCVVVSVSHEDPEVKFNWYVDGVEVHNAKTKPREEQYNSTYRVVSVLTVLHQDWLNGKEYKCKVSNKALPAPIEKTISKAKGQPREPQVYVLPPSREEMTKNQVSLLCLVKGFYPSDIAVEWESNGQPENNYLTWPPVLDSDGSFFLYSKLTVDKSRWQQGNVFSCSVMHEALHNHYTQKSLSLSPGK

EC50 [2]: 1.86 nM | Geomean fluorescence signal (maximum value for binding) [3]: 528000
B5: MHGB687 (antibody, human IgG1, kappa, V domains shown)
VH: QLQLQESGPGLVKPSETLSLMCTVSGGSITSSSYYWGWIRQPPGKGLEWIGNIYYSGTTYYNPSLKSRVTISVDTSKNQFSLKLSSVTAADTAVYYCAAGARDFDSWGQGSLVTVSS
VL: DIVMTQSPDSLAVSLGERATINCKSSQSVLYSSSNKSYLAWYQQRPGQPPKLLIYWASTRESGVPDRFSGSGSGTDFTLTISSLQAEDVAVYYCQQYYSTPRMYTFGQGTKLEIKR
notes: IgG1 mAb

EC50 [1]: 1.7 nM | EC50 [2]: 1.59 nM | Geomean fluorescence signal (maximum value for binding) [3]: 616000
B8: MHGB669 (antibody, human IgG1, kappa, V domains shown)
VH: QVQLQQSGPGLVRPSQTLSVTCAISGDSVSSNSASWNWIRQSPSRGLEWLGRTYYRSEWFNDYAVSVKSRVTINPDTSKNQLSLQLNSVIPEDTAVYYCAREARIGVAGKGFDYWGQGTLVTVSS
VL: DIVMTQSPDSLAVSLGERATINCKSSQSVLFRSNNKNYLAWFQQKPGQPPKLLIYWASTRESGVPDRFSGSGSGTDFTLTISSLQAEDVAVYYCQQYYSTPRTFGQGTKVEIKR
notes: IgG1 mAb

Geomean fluorescence signal (maximum value for binding) [3]: 632000
B9: MHGB665/MHGB732 (one printed row for both names), IgG1 mAb (antibody, V domains shown)
VH: QVQLQQSGPGLVKPSQTLSLTCAISGDSVSSNSAAWNWIRQSPSRGLEWLGRTYYRSKWYNDYAVSVKSRITINPDTSKNQISLQLNSVTPEDTAVYYCAGDRRYGIVGLPFAYWGQGTLVTVSS
VL: not shown
notes: tested as IgG1 mAb
